Assay results: patent US20230203111A1 (published 2023)

Biological target: T1, TFR1 (human source) (human, UniProt P02786 89-760, limits assumed)
T1 construct: Soluble reagent added at 2 µg/mL to ferritin-coated ELISA plates; also called Tfr1 receptor; Tfr-1 receptor
Experiment: ELISA, ferritin coated, human TFR1 2 µg/mL

T1 sequence (P02786 89-760 limits assumed): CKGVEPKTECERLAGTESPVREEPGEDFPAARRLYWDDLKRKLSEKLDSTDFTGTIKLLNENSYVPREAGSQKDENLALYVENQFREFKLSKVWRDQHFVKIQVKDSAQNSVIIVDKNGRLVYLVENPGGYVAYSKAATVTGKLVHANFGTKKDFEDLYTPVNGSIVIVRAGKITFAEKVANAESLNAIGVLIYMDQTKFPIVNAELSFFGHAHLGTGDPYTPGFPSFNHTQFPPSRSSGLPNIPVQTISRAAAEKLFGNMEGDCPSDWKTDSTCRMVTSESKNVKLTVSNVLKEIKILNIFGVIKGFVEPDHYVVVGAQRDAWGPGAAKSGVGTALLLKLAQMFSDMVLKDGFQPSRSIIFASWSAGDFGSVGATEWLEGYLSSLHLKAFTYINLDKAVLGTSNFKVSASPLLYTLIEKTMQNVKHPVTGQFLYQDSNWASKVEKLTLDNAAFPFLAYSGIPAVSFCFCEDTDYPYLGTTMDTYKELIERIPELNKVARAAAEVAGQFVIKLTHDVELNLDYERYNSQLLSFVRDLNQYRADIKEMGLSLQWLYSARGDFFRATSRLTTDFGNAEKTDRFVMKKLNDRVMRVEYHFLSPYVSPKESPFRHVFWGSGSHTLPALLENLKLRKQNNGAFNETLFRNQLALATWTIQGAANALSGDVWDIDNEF

| binding result | Binder |
| --- | --- |
| no binding | HFn-Mt-3 (ligand, cage protein; also called HFn-Mut-3) TTASTSQVRQNYHQDSEAAINRQINLELYASYVYLSMSYYFDRDDVALKNFAKYFLHQSHEEREHAEKLMKLQNQRGGRICLQDIKKPDSDDWESGLNAMESALHLEKNVNQSLLELHKLATDKNDPHLSDFIETHYLNEQVKAIKELGDHVTNLRKMGAPESGLAEYLFDKHTLGDSDNES |
| no binding | HFn-Mt-5 (ligand, cage protein; also called HFn-Mut-5) TTASTSQVRQNYHQDSEAAINRQINLELYASYVYLSMSYYFDRDDVALKNFAKYFLHQSHEEREHAEKLMKLQNQRGGRIFLCDIKKPDSDDWESGLNAMESALHLEKNVNQSLLELHKLATDKNDPHLSDFIETHYLNEQVKAIKELGDHVTNLRKMGAPESGLAEYLFDKHTLGDSDNES |
